This assay has as its target T1, Flamma 552-conjugated Aβ(1–42) (Flamma 552 dye conjugated (position not given)).
T1 construct: numbers count on: the Aβ peptide; also called Flamma 552-labeled Aβ(1–42); monomeric Aβ(1–42) labeled with fluorescent dye Flamma 552
As to the kind of experiment: peptide or protein array; Aβ hexapeptides and full-length Aβ(1–42), each with a C-terminal cysteine, immobilised on maleimide-activated microplates (50 μg/mL, binding buffer 0.1 M sodium phosphate, 0.15 M NaCl, 10 mM EDTA, pH 7.2); Flamma 552-Aβ(1–42) 10 μM in deionized water (10% DMSO), 37°C, 2 h; fluorescence 555/580 nm as baseline before YIAD002. The settings on record: both partners purified.

B1: Aβ(32–37) fragment IGLMVG with a cysteine residue at the C-terminal (peptide)
chain: IGLMVGC
modifications: C-terminal cysteine coupled to the maleimide-activated microplate
notes: amyloid-β residues 32-37; numbers count on: the Aβ peptide; cysteine residue at the C-terminal, told in words, for immobilisation; source: synthetic peptide (Fmoc solid phase peptide synthesis)
In the case of B1, the binding result was “binds”.

B2: Aβ(16–21) fragment KLVFFA with a cysteine residue at the C-terminal (peptide)
chain: KLVFFAC
modifications: C-terminal cysteine coupled to the maleimide-activated microplate
notes: amyloid-β residues 16-21; numbers count on: the Aβ peptide; cysteine residue at the C-terminal, told in words, for immobilisation; source: synthetic peptide (Fmoc solid phase peptide synthesis)
For B2, the binding result was “binds”.
